Patent US20200239586A1 (LA TROBE UNIVERSITY, published 2020)
Values belong to the binder of their own block, whether it stands above or below them.

Columns and labels:
[1] = biological target: phage-displayed hFn14 extracellular domain mutant D45A (human, UniProt Q9NP84 28-77); assay: phage ELISA, antibody on plate, 10-fold phage dilutions
Text: (§1) ELISAs showing the reactivity of the repertoire of hFn14 phage constructs with the anti-Fn14 monoclonal antibodies CRCBT-06-001, CRCBT-06-002, CRCBT-06-003 and CRCBT-06-004. Binding was detected using HRP-conjugated anti-M13-phage polyclonal IgG and TMB substrate. Optical density at 450 nm was quantified using a Spectramax spectrophotometer. Error bars for each dilution represent the standard deviation of duplicate assays. In this figure, reference to “FN14 Ectodomain” is a reference to the extracellular domain of hFn14. Methods according to Epitope mapping using phage expressed Fn14—Method 1.
(§2) The wells of Maxisorp immunoplates (Nunc) were coated overnight at 4° C. with the target monoclonal antibodies or recombinant Tweak-Fc at a concentration of 2 μg/mL in PBS. MAb 5G8 was used as a negative control for ELISA plates coated with tested antibodies. Recombinant Fc alone was used as a negative control for ELISA plates coated with recombinant Tweak-Fc. […] 10-fold serial dilutions of phage were made using 5% skim milk/PBS solution in 2 ml-well microtiter plates and phage dilutions were added to the coated, blocked ELISA plates for 1 hr, with vigorous shaking at room temperature. Phage were subsequently removed from the wells and the ELISA plates were washed 4× with PBS/0.05% Tween 20. HRP-conjugated anti-M13-phage polyclonal IgG diluted in PBS was then added to the wells of the ELISA plates for 1 hr, with vigorous shaking at room temperature. The antibody solution was then removed from the wells and the ELISA plates were washed 5× with PBS/0.05% Tween 20. ELISAs were developed using TMB substrate and the reaction was stopped using 2 M H₂SO₄ solution. Optical density at 450 nm was quantified using a Spectramax absorbance spectrophotometer.

[2] = biological target: phage-displayed hFn14 extracellular domain mutant K48A (human, UniProt Q9NP84 28-77); assay: as above
Text: as §1, §2

[3] = biological target: phage-displayed hFn14 extracellular domain mutant M50A (human, UniProt Q9NP84 28-77); assay: as above
Text: as §1, §2

[4] = biological target: phage-displayed hFn14 extracellular domain mutant D62E (human, UniProt Q9NP84 28-77); assay: as above
Text: as §1, §2

[5] = biological target: T1, synthetic peptide Sub-domain 2 Cys 3&6 ΔS (human, not fully specified; biotin on the added C-terminal lysine); assay: peptide ELISA: biotinylated synthetic peptide on neutravidin plate, antibody titrated (legend: 0.1-0.0001 µg/ml; axis 'Log (c)'), anti-mouse HRP, TMB, OD 450 nm
T1 construct: also called sub-domain 2 cys3&6ΔS mutant
T1 peptide: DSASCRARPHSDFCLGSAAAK

[6] = biological target: phage expressed hFn14 mutant D51A (human, UniProt Q9NP84 28-77); assay: phage ELISA (Method 2): antibody coated on the plate, 10-fold dilutions of phage displaying hFn14 D51A; biotin anti-M13 antibody, streptavidin-HRP, TMB, OD 450 nm; x axis = dilution of phage
Text: ELISAs showing the reactivity of mutant hFn14 phage constructs with the anti-Fn14 monoclonal antibodies CRCBT-06-001, CRCBT-06-002, CRCBT-06-004 compared to ITEM-1 and ITEM-4. Binding was detected using Biotin-conjugated anti-M13-phage monoclonal antibody followed by HRP-conjugated Streptavidin and TMB substrate. Optical density at 450 nm was quantified using a Spectramax spectrophotometer. Error bars for each dilution represent the standard deviation of duplicate assays. FIG. 28A L46A, FIG. 28B D51A and FIG. 28C D62A. In all cases error bars represent the standard deviation. X axis=dilution of phage. Methods according to Epitope mapping using phage expressed Fn14—Method 2.
The wells of Maxisorp immunoplates (Nunc) were coated overnight at 4° C. with the target monoclonal antibodies or recombinant Tweak-Fc at a concentration of 1.5 μg/ml in PBS. mAb 5G8 was used as a negative control for ELISA plates coated with tested antibodies. […] 10-fold serial dilutions of phage were made using PBS solution and phage dilutions were added to the coated, blocked ELISA plates for 1 hour, shaking at room temperature. […]
Method A: HRP-conjugated anti-M13-phage antibody (GE Healthcare) at a 1/5000 dilution in PBS was then added to the wells of the ELISA plates for 1 hour, shaking at room temperature. […] Optical density at 450 nm was quantified using a Spectramax absorbance spectrophotometer.

Sequence of phage-displayed hFn14 extracellular domain mutant M50A (Q9NP84 28-77 M50A): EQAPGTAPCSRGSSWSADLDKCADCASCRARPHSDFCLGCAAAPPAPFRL
Sequence of phage-displayed hFn14 extracellular domain mutant D62E (Q9NP84 28-77 D62E): as the sequence (Q9NP84 28-77 M50A) above, with A23M, D35E counted along it
Sequence of phage-displayed hFn14 extracellular domain mutant K48A (Q9NP84 28-77 K48A): as the sequence (Q9NP84 28-77 M50A) above, with K21A, A23M counted along it
Sequence of phage expressed hFn14 mutant D51A (Q9NP84 28-77 D51A): as the sequence (Q9NP84 28-77 M50A) above, with A23M, D24A counted along it
Sequence of phage-displayed hFn14 extracellular domain mutant D45A (Q9NP84 28-77 D45A): as the sequence (Q9NP84 28-77 M50A) above, with D18A, A23M counted along it

- binding result [1]: binds
- binding result [2]: binds
- binding result [3]: binds
- binding result [4]: binds
- binding result [5]: binds
- binding result [6]: binds
B1: CRCBT-06-002 (antibody, IgG1, V domains shown)
VH: EVKLQQSGGGLVQPGGSMKLSCVASGFTFSYYWMNWVRQSPEQGLEWIAEIRLQSNDYPTHYAESVKGRFTISRDDSKNSVYLQMNNLRPEDTGIYYCACRYADYFDHWGQGTTLTVSS
VL: DTVLTQSPASLVVSLGQRATISCRASQSVSTSDYSYIHWYQQKPGQPPKFLIKYASNRDSGVPARFSGSGSGTDFTLNIHPVEEDDTAIYYCQHSWEIPPTFGAGTKLELQR

- binding result [1]: binds
- binding result [2]: binds
- binding result [3]: binds
- binding result [4]: binds
- binding result [5]: binds
- binding result [6]: binds
B2: CRCBT-06-001 (antibody, IgG2b, V domains shown)
VH: QVQLQQSGGGLVQPGGSMKLSCIASGFTFSSYWMSWVRQSPEKGLEWVAEIRSKSDNYATHYAESVKGKFTISRDDSKSRFFLQMNNLRAEDTGIYYCSSTYADYFHYWGQGTDLTVSS
VL: DIVMTQTPASLAVSLGQRATISCRASQSVSTSTYSYMHWYQQKPGQPPKLLIKYASSLESGVPARFSGSGSGTDFTLNIHPVEEDDTATYYCQHSWEIPYTFGGGTKLEIKR
